Reference: patent US6107069A, “Recombinant kynurenine-3-hydroxylase enzyme and process for its preparation” (priority 1996, dated 2000)

Substrate: Nc1ccccc1C(=O)C[C@H](N)C(=O)O
Experiment: cells, lysate or membranes named
Conditions: other: L-kynurenine 1 to 4,000 μM, OD600 = 0.6, IPTG 1 mM, 2 h at 37° C.

B1: human recombinant kyn-3-OHase (Homo sapiens) (protein)
chain: MDSSVIQRKKVAVIGGGLVGSLQACFLAKRNFQIDVYEAREDTRVATFTRGRSINLALSHRGRQALKAVGLEDQIVSQGIPMRARMIHSLSGKKSAIPYGTKSQYILSVSRENLNKDLLTAAEKYPNVKMHFNHRLLKCNPEEGMITVLGSDKVPKDVTCDLIVGCDGAYSTVRSHLMKKPRFDYSQQYIPHGYMELTIPPKNGDYAMEPNYLHIWPRNTFMMIALPNMNKSFTCTLFMPFEEFEKLLTSNDVVDFFQKYFPDAIPLIGEKLLVQDFFLLPAQPMISVKCSSFHFKSHCVLLGDAAHAIVPFFGQGMNAGFEDCLVFDELMDKFSNDLSLCLPVFSRLRIPDDHAISDLSMYNYIEMRAHVNSSWFIFQKNMERFLHAIMPSTFIPLYTMVTFSRIRYHEAVQRWHWQKKVINKGLFFLGSLIAISSTYLLIHYMSPRSFLCLRRPWNWIAHFRNTTCFPAKAVDSLEQISNLISR
- Km: 57 ± 2 µM
- Vmax: 10.5±0.11 nmol/hour.mg of protein
